# Measurements reported in the supplement of paper PMC9170038.
# System: MS2 coat protein
# Experiment: apparent KD of MS2 coat protein, switch OFF state (with FMN for OFF switches, without FMN for ON switches); designed switch direction (-1 OFF switch, 1 ON switch): 1; higher = weaker reporter binding
# Settings: FMN input: 0 or 200 uM; Eterna round: R93 (includes R88 designs)
# Procedure, shortened: (§1)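 Normalised binding curves from single clusters were fitted, and the median fit for each design is given as apparent KD. The clusters held designed RNA switches transcribed on-chip from Illumina sequencing clusters. These were titrated with SNAP-549-labelled MS2 coat protein (twofold steps from 0.7 or 1.5 nM to 3 µM, 0.8–1.5 h to 10–20 min per step) in 100 mM Tris-HCl pH 7.5, 80 mM KCl, 4 mM MgCl2, without or with constant ligand.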
row,Sequence,apparent KD of MS2 coat protein [nM]
1,AAAAAACAUGAGGAUCACCCAUGUCCUCGGACGUGAGGAUAUGUACAGACUUCGGUCUGUACAGAAGGCACGUAAA [SS1 - 1042],402
2,GAAAAACAUGAGGAUCACCCAUGUAGAAAUAUGGGAGGAUAUACAAAGACGAAAGUCAAAGUAGAAGGCCUAAGAG [Garnet 22],82.6
3,GAAGACGUAGGAUAGGAUAUGUGAAUAAUUACAUGAGGAUCACCCAUGUCCAUUUAUAUGGGAACAUAGAAGGGUUUUCGUUAUC [SameState2 Malc#9],281
4,AACAGACAUGAGGAUCACCCAUGUAGAAUUAUGGGAGGAUAUACAAAGACGAGAGUCAGAGUAGAAGGCCUAGGAC [salish99-ss1-163],71.2
5,AAAAAACAUGAGGAUCACCCAUGUCUUCGGACGUGAGGAUAUGUACAGACUUCGGUCUGUACAGAAGGCAUGAAAA [SS1 - 1058],381
6,AACAAUCUAUCUGAGGAUAUGUGUCGAAAGACAUGAGGAUCACCCAUGUGAAAACAUGAAAAGACACAGAAGGCAGAUAGAUUGA [SS2: 1154],41.5
7,CUACAACAUGAGGAUCACCCAUGUCGUAGAAAUCAAGGAUAUGGGUCGGUAACAUGCGUACCAGAAGGUGAGGAAA [Rebicequ],30.4
8,ACUUCACAUGAGGAUCACCCAUGUCAGGCCGGACUAGGAUAUUAUCAAGCAGCGUAACCAUAAGAAGGAGUAGGAA [JR_SS001_Sub313],82.5
9,"AAACCACAUGAGGAUCACCCAUGUAAGAUAUACAUAGGAUAUGCGAAAAGAAACAAAGAAGCAGAAGGGUGGAAAA [75%, Ex sub1, 15]",54.9
10,UGGAGACAUGAGGAUCACCCAUGUGAGAAGAGGCGAGGAUAUCGAAAGAAAGAAGAGAAACGAGAAGGCGCGAGAA [salish99-SS1-033],36.7
11,AAAAUACAUGAGGAUCACCCAUGUGAAAAUAUGGGAGGAUAUACAAACACGAAAGUGAAAGUAGAAGGCCUAAAAA [SS! MT 15],231
12,AAAAUACAUGAGGAUCACCCAUGUGAGUCGAACGCAGGAUAUGCCCGUUGAAAAGGGCGGGCAGAAGGGUGCCGAA [SameState1-IV],61.7
13,GGUACAUCUAGUUAGGAUAUCAGAUGUAAGACAUGAGGAUCACCCAUGUCCUAAGAAUAGGUAACUGAGAAGGAACAGGGAGUCC [JR_SS002_Sub417],29.8
14,AAAUAACAUGAGGAUCACCCAUGUCAAAUAAAUCGAGGAUAUGGGCCCGAGUUCCGGGAGCCAGAAGGCGAAAAGA [Ceusrete],51.7
15,AAAUAAAAGACUAAGGAUAUGUCGCAUGACACAUGAGGAUCACCCAUGUGGUAACACAGAGGGUGGCAGAAGGUAGUCAAAAAAC [Mod 1 of Pariah 6 (Round1) by Hyphema],446
16,UAAAAACAUGAGGAUCACCCAUGUGAGAACAUGGGAGGAUAUACGAGGACGAAAGUCAAAGUAGAAGGCCUAAAAG [Garnet 84],101
17,AAGAAUUAAACGCAGGAUAUGUACCCACGUACAUGAGGAUCACCCAUGUGCCUAUAAGGGUCGAGGCAGAAGGGCGAUAUAGAAA [Reteriusge],81.2
18,AAUAUAUUAUCUGAGGAUAUCAUAGGAAAAACAUGAGGAUCACCCAUGUGGGAAACCUGGUCGGGUGAGAAGGUGGAUAAUAUAU [Samwise Clockwise 33 - Jieux - Same State 2],341
19,AGGAAACAUGAGGAUCACCCAUGUAAAAAUAUGGGAGGAUAUACAAACAAGAAAGUCAGAGUAGAAGGCCUAAAAG [Garnet 7],145
20,GGUACGGCUAGUCAGGAUAUCAGGCGUAAGACAUGAGGAUCACCCAUGUCCUAAGAACAGGUAACUGAGAAGGGACAGGGCGUCC [JR_SS002_Sub414],63.1
21,AGGAGACAUGAGGAUCACCCAUGUGAGAAGAGGCGAGGAUAUCGAAAGAAAGAAGAGAAACGAGAAGGCGCGAGGU [salish99-SS1-023],36.7
22,UGAAGACAUGAGGAUCACCCAUGUGGGAAUAUGGGAGGAUAUACAAAGACGAGAGUCAGAGUAGAAGGCCUAGGAU [salish99-ss1-96],154
23,GAAAAACAUGAGGAUCACCCAUGUAGAAAUAUGGGAGGAUAUACGAAGUCGAAAGUCAAAGUAGAAGGCCUAAAAG [Garnet 28],108
24,"AUAAAAGAAGCGAAGGAUAUCCAACUCAAAACAUGAGGAUCACCCAUGUAAAGAAAUAAAAAAUGGGAGAAGGUCGCAAAGAAUA [73%, More Fisker Same State 2, D3, 14]",40.1
25,GAAGACAUAGUUCAGGAUAUAGGAAUAGUCACAUGAGGAUCACCCAUGUGCAUUUAUAUGCGCACUUAGAAGGGAGGUAGUUAUC [SameState2 Malc#23],25
26,GCCUAACAUGAGGAUCACCCAUGUAGUGGGUUGUUAGGAUAUGGGCCGUGUAACACUGCACCAGAAGGAAUAGAAG [Atinanqu],532
27,AAAAAACAUGAGGAUCACCCAUGUAAAAAAAACACAGGAUAUCCCUAAAAAAAAAAAAAAGGAGAAGGGUGAAAAA [Nob's Hobby 2 - Jieux - Same State 1],29.8

# System: MS2 coat protein
# Experiment: apparent KD of MS2 coat protein, switch OFF state (with FMN for OFF switches, without FMN for ON switches); designed switch direction (-1 OFF switch, 1 ON switch): -1; higher = weaker reporter binding
# Settings: FMN input: 0 or 200 uM; Eterna round: R93 (includes R88 designs)
# Procedure, shortened: as §1
row,Sequence,apparent KD of MS2 coat protein [nM]
1,AAGUAGGUAGGAUAUACAUAGAUACAGAUUCAUGUGGAACUACAUGAGGAUCACCCAUGUAGAAGGACCUAAUA [AJ 40],126
2,UAAGGACAUGAGGAUCACCCAUGUGAGGAUAUGCUCUACGAACGUUUAUUUAUGAGAAGCAGAAGGCACAUUUU [try 2],127
3,AAAUUGUCAGGAUAUCCUAUAACUCUAAAAUAGAGGAGAUAGGAGAAGGGACAUGAGGAUCACCCAUGUAAAAC [May 86],61.7
4,AAGAAGUGAGGAUAUGCUUGUCGUCACAAAAGUGAUGACGAGCAGAAGGCACAUGAGGAUCACCCAUGUAAAGA [Opal 27],49.9
5,AACAGUACAGGAUAUACAUGAGGAUCACCCAUGUGACAAUUAAGUGGCGUACCACAGUGUAGAAGGGUACUGGA [Ruby 84],113
6,AACAGUACAGGAUAUACAUGAGGAUCACCCAUGUAAAAAGGGAGUGGCGUACCACAAAGUAGAAGGGUACUGGA [Moding Maslow revisited (73) 7],172
7,AGAAAGUGAGGAUAUUCGGAUAGGAAAACGAAAACCUAUCCGAAGAAGGCACAUGAGGAUCACCCAUGUAAAAA [Mat - Exaclusion 4 - Eli mod - D38],37.5
8,GGAAAACAUGAGGAUCACCCAUGUGAGGAUAUCCAGGAUAUAGAAGGAGGAUAUAGAAGGAGAAGGCACGAAGG [salish99-ex1-18],33.1
9,AAAAAACAUGAGGAUCACCCAUGUGAGGAUAUUGGUAUUAAAGACACCCACUUAAUGGCGAGAAGGCGCAAAAA [Brourd 613 Mod 19 - Jieux - Exclusion 1],27.5
10,AACUGACAUGAGGAUCACCCAUGUCAGGAUAUGAUAUGUAAAAAAAAAAAAAUACUUAUCAGAAGGGACAUGAA [Design 44: Sub-opt CB],14.1
11,ACCAAUGGAGGAUAUACAUGAGGAUCACCCAUGUUUAUCCUACAUAGGUGAAAAACAUGUAGAAGGCCAUAGGA [EX3 237: Super Stable 37],12
12,AAAAAACAUGAGGAUCACCCAUGUGAGGAUAUGACGUAAAUAAAGAAAGAAUAAAUCGUCAGAAGGCACACCAA [Mat - Exclusion 1 - Eli mod - D71],49.2
13,"AGGAAACAUGAGGAUCACCCAUGUGAGGAUAUGAACGAAAAUAAAUAAAAAUAAAAGUUCAGAAGGUACAAAAA [66%, Wbt, 5]",36.8
14,GUGUACAGAGGAUAUACAUGGGCAUGAAAACAUGCAUCCUCACAUGAGGAUCACCCAUGUAGAAGGCUGUACAC [Ex2: 706],25.7
15,AAGAAACAUGAGGAUCACCCAUGUGAGGAUAUACAAAAGAAAAGAAAAGAAAGAAGAAGUAGAAGGUACAAAGG [Merenre Nemtyemsaf II],26.6
16,AAAAGUGGAGGAUAUACAUGAGGAUCACCCAUGUGUAAAAAUAAAAACACAAAAGAAAGUAGAAGGCCACAAAA [Ex 3 May 9],55.2
